Series [1] deals with recombinant 601-positioned nucleosome core particle (X. laevis histones, 147-bp 601 DNA) (x. laevis). Put plainly: FRET or BRET; 1 nM Cy3-labeled nucleosomes titrated with SIRT6^(TQ3) in solution; 50 mM Tris, 50 mM NaCl, 0.5 mM TCEP, pH 7.5; KD(High) fitted from 0-5 nM (ligand-depleted), KD(Low) from 5-500 nM (specific binding).
For series [2] the target is unchanged. Put plainly: native gel or EMSA; 50 nM recombinant nucleosomes with varying SIRT6 protein; 10 mM Tris, 50 mM NaCl, 0.5 mM TCEP, 6% glycerol, pH 7.4, on ice >15 min; SYBR Safe; apparent KD, shifted complexes together as bound fraction, ligand-depleted (quadratic) fit. For orientation: A gel shift assay detects complexes by their altered migration in electrophoresis.

The target in series [3] is NCP with the high affinity site saturated with full-length SIRT6 (1:1 SIRT6:NCP complex) (x. laevis | not stated) (UniProt Q8N6T7). Description: native gel or EMSA; high affinity site on NCPs saturated with 10 nM full-length SIRT6, then increasing SIRT6^(1–292); fraction bound from the loss of free nucleosomes.
The test system of a further series is SIRT6(TQ3). Put plainly: FRET. To be noted: EMSA: 10 mM Tris, 50 mM NaCl (100 mM for DNA), 0.5 mM TCEP, 6% glycerol, pH 7.4, on ice, 50 nM NCP, FRET: 50 mM Tris, pH 7.5, 1 nM ….
Series [4] has as its target recombinant 601-positioned nucleosome core particle (X. laevis histones, 147-bp 601 DNA) (x. laevis). Description: native gel or EMSA; competition: SIRT6:NCP complexes pre-formed with 100 nM SIRT6, then competed with LANA peptide (300 nM to 100 µM); IC50 from percent inhibition.
Series [5] shares this target. Put plainly: native gel or EMSA.
For series [6], the target named is nucleosome core particle with four alanine mutations at the H2A acidic patch (x. laevis). Description: native gel or EMSA; 50 nM recombinant nucleosomes with varying SIRT6 protein; 10 mM Tris, 50 mM NaCl, 0.5 mM TCEP, 6% glycerol, pH 7.4, on ice >15 min; SYBR Safe; apparent KD, shifted complexes together as bound fraction, ligand-depleted (quadratic) fit.
The test system of another series is SIRT6(270-355) CTD. Description: EMSA. The following applies: EMSA: 10 mM Tris, 50 mM NaCl (100 mM for DNA), 0.5 mM TCEP, 6% glycerol, pH 7.4, on ice, 50 nM NCP, FRET: 50 mM Tris, pH 7.5, 1 nM ….
Series [7] addresses recombinant 601-positioned nucleosome core particle (X. laevis histones, 147-bp 601 DNA) (x. laevis). Put plainly: native gel or EMSA; TAMRA-labeled SIRT6 with NCP; TAMRA and SYBR Safe fluorescence scanned in the same gel, TAMRA signal normalized to DNA content; gel blotted for histone H3.
Series [8] deals with LANA peptide (Kaposi's sarcoma-associated herpesvirus). Put plainly: competition EMSA. To be noted: EMSA: 10 mM Tris, 50 mM NaCl (100 mM for DNA), 0.5 mM TCEP, 6% glycerol, pH 7.4, on ice, 50 nM NCP, FRET: 50 mM Tris, pH 7.5, 1 nM ….
The next series concerns SIRT6. Description: EMSA. To be noted: apparent, both complexes as bound, 50 nM NCP, EMSA: 10 mM Tris, 50 mM NaCl (100 mM for DNA), 0.5 mM TCEP, 6% glycerol, pH 7.4, on ice, FRET: 50 mM Tris, pH 7.5, 1 nM ….
In the next series the test system is SIRT6 25N mutant. Description: EMSA. The following applies: apparent, n=1, EMSA: 10 mM Tris, 50 mM NaCl (100 mM for DNA), 0.5 mM TCEP, 6% glycerol, pH 7.4, on ice, 50 nM NCP, FRET: 50 mM Tris, pH 7.5, 1 nM ….
Another series deals with SIRT6(1-301). Description: EMSA. To be noted: 139 nM in text, EMSA: 10 mM Tris, 50 mM NaCl (100 mM for DNA), 0.5 mM TCEP, 6% glycerol, pH 7.4, on ice, 50 nM NCP, FRET: 50 mM Tris, pH 7.5, 1 nM ….
The next series has as its system SIRT6 27R mutant. Description: EMSA. The following applies: apparent, n=1, EMSA: 10 mM Tris, 50 mM NaCl (100 mM for DNA), 0.5 mM TCEP, 6% glycerol, pH 7.4, on ice, 50 nM NCP, FRET: 50 mM Tris, pH 7.5, 1 nM ….
The next series relates to SIRT6(AAA). Description: EMSA. The following applies: EMSA: 10 mM Tris, 50 mM NaCl (100 mM for DNA), 0.5 mM TCEP, 6% glycerol, pH 7.4, on ice, 50 nM NCP, FRET: 50 mM Tris, pH 7.5, 1 nM ….
The next series deals with SIRT6(1-292). Put plainly: EMSA. The following applies: EMSA: 10 mM Tris, 50 mM NaCl (100 mM for DNA), 0.5 mM TCEP, 6% glycerol, pH 7.4, on ice, 50 nM NCP, FRET: 50 mM Tris, pH 7.5, 1 nM ….
For series [9], the system named is LANA peptide (Kaposi's sarcoma-associated herpesvirus). Put plainly: competition EMSA. The following applies: EMSA: 10 mM Tris, 50 mM NaCl (100 mM for DNA), 0.5 mM TCEP, 6% glycerol, pH 7.4, on ice, 50 nM NCP, FRET: 50 mM Tris, pH 7.5, 1 nM …. This is another data set of the same source.

Latency Associated Nuclear Antigen (LANA) peptide from Kaposi’s sarcoma-associated herpesvirus, sequence (Q9QR71 1-23): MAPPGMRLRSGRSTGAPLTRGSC

Regarding “SIRT6 labeled with Tide Quencher 3 (TQ3) at cysteine 18 (from UniProt Q8N6T7 2-355) (enzyme)”, in series [1], the KD(High), high affinity site is 0.46 nM and the KD(Low), low affinity site amounted to 30 nM.
For the substance “SIRT6 C-terminal domain (residues 270–355) (from UniProt Q8N6T7 270-355) (domain or fragment)”, the Kd in series [2] amounted to 400 nM.
The same measure, in the same setting: the figure for “SIRT6 with alanine substitutions at S45, N206 and N208 (from UniProt Q8N6T7 2-355) (enzyme)” is 97 nM.
As for “SIRT6 residues 1–292 (C-terminal truncation) (from UniProt Q8N6T7 1-292) (domain or fragment)”, the KD(Low), low affinity site in series [3] came out at 40 nM. Moreover, in [2], the Kd came out at 250 nM and the stoichiometry N (usually a count of units in the complex or per binding partner) is 2.
For NCP(Cy3), the Kd in the series on SIRT6(TQ3) (high-affinity site) is 0.46 nM; in the series with SIRT6(TQ3) (low-affinity site), 30 nM.
Take “Latency Associated Nuclear Antigen (LANA) peptide from Kaposi’s sarcoma-associated herpesvirus”: the IC50 (usually the point on the concentration scale where inhibition reaches its midpoint) came out at 9500 nM in series [4] and 6100 nM in series [5].
As to “SIRT6 (full-length, His-tagged) (from UniProt Q8N6T7 1-355) (enzyme)”, the results for the Kd in series [2] and in series [6] were 13 nM and 140 nM, respectively.
Consider 601 DNA (147 bp), for which, in the series on SIRT6(270-355) CTD (100 mM NaCl, 50 nM DNA), the Kd came out at 450 nM.
Take “SIRT6 residues 1–301 (C-terminal truncation) (from UniProt Q8N6T7 1-301) (domain or fragment)”: in [2], the Kd was found to be 140 nM and the stoichiometry N came out at 2.
In the case of “SIRT6 labeled with tetramethylrhodamine (TAMRA) at cysteine 320 (from UniProt Q8N6T7 2-355) (enzyme)”, the stoichiometry N in series [7] came out at 2.
For NCP (601, 147 bp), the IC50 in [8] was 6100 nM; in series [9], 9500 nM. For the same substance, the Kd in the series on SIRT6(270-355) CTD amounted to 400 nM; in the series with SIRT6, 13 nM; with SIRT6 25N mutant, 14 nM; in the series with SIRT6(1-301), 140 nM; in the series with SIRT6 27R mutant it was 14 nM; in the series with SIRT6(AAA) it was 97 nM. Also, the figures for the Kd in the series with SIRT6(1-292) (254 nM in text) and in the series on SIRT6(1-292) were 250 nM and 40 nM, respectively.

(Values after PMC7568541.)
